Data as given in article doi:10.1101/2023.05.08.539930.

B1: 70 bp (CAG)1 FRET DNA (dsDNA)
DNA 1: CACACGTTCCGAGATATCCTAGCAAGTGATCAGCGTCTATGTAGCTCAAGAGTTCGACTCAGCCTACACCGAG
DNA 2: CTCGGTGTAGGCTGAGTCGAACTCTTGAGCTACATAGACGATCACTTGCTAGGATATCTCGGAACGTGTG
modifications: 5' digoxigenin on both strands, anti-digoxigenin Fab end-blocked
B2: 70 bp (CAG)2 FRET DNA (dsDNA)
DNA 1: CACACGTTCCGAGATATCCTAGCAAGTGATCAGCAGCGTCTATGTAGCTCAAGAGTTCGACTCAGCCTACACCGAG
DNA 2: B1 DNA 2
modifications: 5' digoxigenin on both strands, anti-digoxigenin Fab end-blocked
B3: 70 bp (CAG)4 FRET DNA (dsDNA)
DNA 1: CACACGTTCCGAGATATCCTAGCAAGTGATCAGCAGCAGCAGCGTCTATGTAGCTCAAGAGTTCGACTCAGCCTACACCGAG
DNA 2: B1 DNA 2
modifications: 5' digoxigenin on both strands, anti-digoxigenin Fab end-blocked

Target: MSH2;MSH3 (Homo sapiens;Homo sapiens, UniProt P43246;P20585 1-934;1-1137, |)
Assay: FRET

Row | Binder | binding result
1 | B1 | binds
2 | B2 | binds
3 | B3 | binds
